Results reported in US20220289850 (published 2022).

Target: T1, human integrin avb6 (human, UniProt P06756)
T1 chain 1: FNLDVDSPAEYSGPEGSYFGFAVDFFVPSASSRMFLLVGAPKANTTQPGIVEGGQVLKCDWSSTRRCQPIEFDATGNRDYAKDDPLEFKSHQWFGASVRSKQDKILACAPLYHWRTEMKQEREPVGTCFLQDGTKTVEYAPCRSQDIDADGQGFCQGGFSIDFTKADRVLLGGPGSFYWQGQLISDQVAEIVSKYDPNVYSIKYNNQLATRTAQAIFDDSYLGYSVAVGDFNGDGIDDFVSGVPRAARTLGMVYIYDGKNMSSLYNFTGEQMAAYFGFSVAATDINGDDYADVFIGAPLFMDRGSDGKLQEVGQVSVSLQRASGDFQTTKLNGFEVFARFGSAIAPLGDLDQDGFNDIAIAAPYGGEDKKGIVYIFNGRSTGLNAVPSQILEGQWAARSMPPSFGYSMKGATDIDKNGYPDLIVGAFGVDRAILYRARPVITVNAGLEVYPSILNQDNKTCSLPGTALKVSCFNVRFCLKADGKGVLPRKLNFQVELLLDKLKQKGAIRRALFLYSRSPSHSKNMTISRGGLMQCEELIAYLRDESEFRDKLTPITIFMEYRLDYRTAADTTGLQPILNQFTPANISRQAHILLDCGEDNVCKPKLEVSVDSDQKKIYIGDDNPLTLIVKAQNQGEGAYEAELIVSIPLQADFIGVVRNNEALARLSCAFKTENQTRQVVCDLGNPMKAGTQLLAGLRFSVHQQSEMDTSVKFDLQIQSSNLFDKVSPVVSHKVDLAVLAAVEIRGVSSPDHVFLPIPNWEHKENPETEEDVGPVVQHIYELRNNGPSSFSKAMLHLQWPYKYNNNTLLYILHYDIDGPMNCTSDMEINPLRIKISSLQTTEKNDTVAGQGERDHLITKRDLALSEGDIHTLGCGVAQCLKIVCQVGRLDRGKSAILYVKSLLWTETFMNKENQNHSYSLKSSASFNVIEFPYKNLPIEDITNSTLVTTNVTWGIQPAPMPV
T1 chain 2: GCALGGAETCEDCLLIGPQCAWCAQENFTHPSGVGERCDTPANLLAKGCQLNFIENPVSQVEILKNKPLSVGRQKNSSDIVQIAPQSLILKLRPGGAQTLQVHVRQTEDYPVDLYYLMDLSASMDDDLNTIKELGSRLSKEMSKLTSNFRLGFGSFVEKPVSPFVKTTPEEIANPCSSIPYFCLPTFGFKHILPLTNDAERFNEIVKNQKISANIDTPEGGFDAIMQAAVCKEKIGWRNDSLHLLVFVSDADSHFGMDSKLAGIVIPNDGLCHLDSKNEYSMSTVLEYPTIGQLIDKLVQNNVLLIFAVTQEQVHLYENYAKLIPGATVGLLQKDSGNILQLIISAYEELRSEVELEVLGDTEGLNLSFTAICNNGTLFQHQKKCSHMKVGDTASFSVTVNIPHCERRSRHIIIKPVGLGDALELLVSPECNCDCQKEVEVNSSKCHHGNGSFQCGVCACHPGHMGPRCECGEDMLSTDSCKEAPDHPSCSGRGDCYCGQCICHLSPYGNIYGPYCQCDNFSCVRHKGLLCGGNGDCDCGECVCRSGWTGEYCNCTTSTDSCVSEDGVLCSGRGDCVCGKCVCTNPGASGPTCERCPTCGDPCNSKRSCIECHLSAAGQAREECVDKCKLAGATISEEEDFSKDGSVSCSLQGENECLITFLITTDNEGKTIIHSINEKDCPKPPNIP
Assay: SPR

binding result: no binding
B1: ADWA11 2.4 IgG (antibody)
chain 1: EVQLVESGGGLVQPGGSLRLSCAASGFNIKDYYMNWVRQAPGKGLEWVGWIDPDQGNTIYEPKFQGRFTISADTSKNSAYLQMNSLRAEDTAVYYCARRLLMDYWGQGTLVTVSSASTKGPSVFPLAPSSKSTSGGTAALGCLVKDYFPEPVTVSWNSGALTSGVHTFPAVLQSSGLYSLSSVVTVPSSSLGTQTYICNVNHKPSNTKVDKKVEPKSCDKTHTCPPCPAPEAAGAPSVFLFPPKPKDTLMISRTPEVTCVVVDVSHEDPEVKFNWYVDGVEVHNAKTKPREEQYNSTYRVVSVLTVLHQDWLNGKEYKCKVSNKALPAPIEKTISKAKGQPREPQVYTLPPSREEMTKNQVSLTCLVKGFYPSDIAVEWESNGQPENNYKTTPPVLDSDGSFFLYSKLTVDKSRWQQGNVFSCSVMHEALHNHYTQKSLSLSPGK
chain 2: DIQMTQSPSSLSASVGDRVTITCRSTKSLSHFNGNTYLFWYQQKPGKAPKRLIYYMSSLASGVPSRFSGSGSGTDFTLTISSLQPEDFATYYCQQSLEYPFTFGGGTKVEIKRTVAAPSVFIFPPSDEQLKSGTASVVCLLNNFYPREAKVQWKVDNALQSGNSQESVTEQDSKDSTYSLSSTLTLSKADYEKHKVYACEVTHQGLSSPVTKSFNRGEC
